The source of these data is patent publication US7244563B2, “Genes for plant fatty acid modifying enzymes associated with conjugated double bond formation” (E. I. du Pont de Nemours and Company, priority 2002, dated 2007).

In experiment [1] the test system is soybean embryos. In words: Fatty acid composition of transgenic soybean somatic embryos (GC, GC-MS). It counts as cell-based. On the procedure:
Gene fusions of the Impatiens balsamina or Momordica charantia cDNAs with the conglycinin promoter and phaseolin termination sequences in vector pKS67 were introduced into soybean embryos using the particle bombardment method of transformation. To induce somatic embryos, cotyledons, 3–5 mm in length dissected from surface sterilized, immature seeds of a soybean cultivar A2872 or JACK-910 were cultured in the light or dark at 26° C. on an appropriate agar medium for 6–10 weeks. Somatic embryos that produce secondary embryos were then excised and placed into a suitable liquid medium. After repeated selection for clusters of somatic embryos that multiplied as early, globular staged embryos, the suspensions were maintained as described below.
Soybean embryogenic suspension cultures were then transformed with the vector pKS67 containing the Impatiens or Momordica cDNA for fatty acid modifying enzymes associated with conjugated double synthesis by the method of particle gun bombardment (Klein et al. (1987) Nature (London) 327:70, U.S. Pat. No. 4,945,050). A DuPont Biolistic™ PDS1000/HE instrument (helium retrofit) was used for these transformations.
Five to seven days post bombardment, the liquid media was exchanged with fresh media, and eleven to twelve days post bombardment with fresh media containing […] hygromycin. This selective media was refreshed weekly. Seven to eight weeks post bombardment, green, transformed tissue was observed growing from untransformed, necrotic embryogenic clusters. Isolated green tissue was removed and inoculated into individual flasks to generate new, clonally propagated, transformed embryogenic suspension cultures. Each new line was treated as an independent transformation event. These suspensions were then subcultured and maintained as clusters of immature embryos.
Transgenic soybean embryos selected and maintained in this manner were analyzed for eleostearic acid and parinaric acid content using methods described in Example 4 (Table 1). Individual embryos expressing either the Impatiens or Momordica fatty acid modifying enzyme for conjugated double bond synthesis were homogenized in 1% (w/v) sodium methoxide in methanol. Fatty acid methyl esters resulting from this transesterification step were analyzed by both GC and GC-MS as described in Example 4. Methyl esters of eleostearic and parinaric acids were identified in transgenic soybean extracts by comparison of retention times and mass spectra with those of fatty acid methyl esters prepared from seeds of Impatiens balsamina and Momordica charantia. […] In soybean embryos expressing the Momordica enzyme, eleostearic acid was detected principally as α-eleostearic acid with lesser amounts of at least two other cis-trans isomers of eleostearic acid. […]

For experiment [2], the system named is Tobacco (Nicotiana tabacum L. cv Xanthi) callus. In words: Fatty acid analysis (GC, GC-MS) of transgenic tobacco callus expressing the cDNA. It counts as cell-based. Conditions: pBI121, 35S promoter, highest amount. The source says: The cDNAs encoding fatty acid modifying enzymes associated with conjugated double bond synthesis in seeds of Impatiens balsamina and Momordica charantia were introduced into a plant expression vector designated pML63. Vector pML63 contains the uidA gene (which encodes the GUS enzyme) operably linked to the CaMV35S promoter and 3′ NOS sequence. pML63 is modified from pMH40 to produce a minimal 3′ NOS terminator fragment. pMH 40 is described in WO 98/16650 which was published on Apr. 23, 1998, the disclosure of which are hereby incorporated by reference. Using standard techniques familiar to those skilled in the art, the 770 base pair terminator sequence contained in pMH40 was replaced with a new 3′ NOS terminator sequence comprising nucleotides 1277 to 1556 of the sequence published by Depicker et al. (1982, J. Appl. Genet. 1:561–574). A chimeric gene was constructed comprising cDNAs encoding fatty acid modifying enzymes associated with conjugated double bond synthesis in seeds of Impatiens balsamina and Momordica charantia in sense orientation with respect to the cauliflower mosaic virus 35S promoter that is located 5′ to the cDNA fragment and termination sequences from the nopaline synthase (NOS) that are located 3′ to the cDNA fragment. The cDNAs for the Impatiens polypeptide was introduced in the NcoI and EcoRI sites of the vector pML63. The cDNA for the Momordica polypeptide was introduced into the NcoI and SmaI sites of the vector pML63. The NcoI and EcoRI sites flanking the Impatiens cDNA were generated by PCR amplification of the cDNAs using oligonucleotide primers that contained these restriction sites (SEQ ID NO:7 and SEQ ID NO:8, for the sense and antisense oligonucleotides, respectively). PCR amplification was conducted using the Pfu DNA polymerase. The NcoI site flanking the 5′ end of the Momordica cDNA was generated by PCR amplification in a similar manner (SEQ ID NO:9 and SEQ ID NO:10). The 3′ end of the PCR-generated Momordica cDNA was blunt-ended which allowed for cloning into the SmaI site of the vector pML63. The resulting fusions of the cauliflower mosaic virus 35S promoter with the cDNAs encoding fatty acid modifying enzymes associated with conjugated double bond synthesis in seeds of Impatiens balsamina or Momordica charantia and NOS termination sequences were released from the vector pML63 by digestion with XbaI. The resulting XbaI fragment was ligated into the corresponding site of the binary vector pZS199 The vector pZS199 contains the following elements: (1) the chimeric gene nopaline synthase/neomycin phosphotransferase as a selectable marker for transformed plant cells (Brevan et al. (1984) Nature 304:184–186), (2) the left and right borders of the T-DNA of the Ti plasmid (Brevan et al. (1984) Nucl. Acids Res. 12:8711–8720), (3) the E. coli lacZ-complementing segment (Vieria and Messing (1982) Gene 19:259–267) with unique restriction endonuclease sites for EcoRI, KpnI, BamHI, XbaI and SalI, (4) the bacterial replication origin from the Pseudomonas plasmid pVS1 (Itoh et al. (1984) Plasmid 11:206–220), and (5) the bacterial neomycin phosphotransferase gene from Tn5 (Berg et al. (1975) Proc. Natl. Acad. Sci. U.S.A. 72:3628–3632) as a selectable marker for transformed A. tumefaciens. The nopaline synthase promoter in the plant selectable marker was replaced by the 35S promoter (Odell et al. (1985) Nature, 313:810–813) by a standard restriction endonuclease digestion and ligation strategy.
Gene fusions of the Impatiens balsamina or Momordica charantia cDNAs with the cauliflower mosaic virus 35S promoter and the NOS termination sequences in vector pZS199 were introduced into Agrobacterium tumefaciens strain LBA4404. […]

The mark [3] stands for this setting: soybean embryos, six independent transgenic lines (n = 6), ± standard deviation, % of total oil weight.

A value given as a limit tells only on which side of the number the result lay.

B1: ChrFad2: Chrysobalanus icaco fatty acid modifying enzyme associated with conjugated double bond synthesis, SEQ ID NO:20, cDNA SEQ ID NO:19 (protein)
chain: MGAGGQKTFPRLEEEEKQQQAAAAGFKRIPTTKPPFTLSDLKKAIPPHCFQRSLLRSFSYVFIDLTIISILGYIGATYICLLPPPSKYLAWLLYWAVQGCFFTGAWALAHDCGHHAFSDYQWIDDAVGMVLHSTLMVPYFSFKYSHRRHHSNINSLERDEVFVPRPKSKIKWYCSKYLNNPLGRVLTLAVTLILGWPMYLALNASGRDYDRFVSHFYPYGPIYNDRERLQIYISDAGIFIVSYVLYQVALAKGLPWLICIYGVPLFVNNALVVTITYLQHTHPELPRYGNSEWDWFKGTLATVDRDMGPLLNWATHHVSDTHYVHHLFSTMPHYHGVEATKAVKPMLGEYYRFDPTPLYKALWREAKECLFVEPDSKSPGVFWFDKF
modifications: Chrysobalanus icaco
B1: in experiment [1] (soybean embryos, single embryos from six independent transgenic lines (n = 6), ± standard deviation, % of total oil weight), the “16:0” value amounted to 7.0 ± 1.4 Weight %. In addition, in experiment [1] (setting [3]), the “18:0” value was found to be 1.9 ± 0.6 Weight %, the “18:1” value is 37.6 ± 6.2 Weight %, the “18:2” value stood at 28.1 ± 3.8 Weight % and the “18:3” value came to 6.0 ± 2.5 Weight %. This molecule gave a α-Parinaric in experiment [1] (setting [3]) of 0.9 ± 0.3 Weight %. This molecule came in with an Eleostearic in experiment [1] (soybean embryos, six independent transgenic lines (n = 6), includes cis-trans isomers of α-eleostearic acid (<1.0 wt %)) of 16.4 ± 2.4 Weight %. The Other in experiment [1] (soybean embryos, six independent transgenic lines (n = 6), primarily 20:0, 20:1, 22:0, and 22:1) is given as less than 2.1 Weight %. Further, the “α-paranaric acid of the total fatty acids” value in experiment [1] (soybean somatic embryos, β-conglycinin promoter) is listed as “approximately 1 wt %”. The “α-eleostearic acid of the total fatty acids” value in experiment [1] (soybean somatic embryos, β-conglycinin promoter, highest amount) is on record as not above 21 wt %. In experiment [2], the “α-eleostearic acid of the total fatty acids of callus samples” value is not above 4.7 wt % and the “α-paranaric acid of the total fatty acids of callus samples” value is not above 0.4 wt %.
